Assay [1] addresses T1, recombinant human LAG-3-Fc (human, UniProt P18627 23-450).
T1 construct: also called human LAG-3 (R&D Systems cat no. 2319-L3); LAG3 antigen
T1 sequence: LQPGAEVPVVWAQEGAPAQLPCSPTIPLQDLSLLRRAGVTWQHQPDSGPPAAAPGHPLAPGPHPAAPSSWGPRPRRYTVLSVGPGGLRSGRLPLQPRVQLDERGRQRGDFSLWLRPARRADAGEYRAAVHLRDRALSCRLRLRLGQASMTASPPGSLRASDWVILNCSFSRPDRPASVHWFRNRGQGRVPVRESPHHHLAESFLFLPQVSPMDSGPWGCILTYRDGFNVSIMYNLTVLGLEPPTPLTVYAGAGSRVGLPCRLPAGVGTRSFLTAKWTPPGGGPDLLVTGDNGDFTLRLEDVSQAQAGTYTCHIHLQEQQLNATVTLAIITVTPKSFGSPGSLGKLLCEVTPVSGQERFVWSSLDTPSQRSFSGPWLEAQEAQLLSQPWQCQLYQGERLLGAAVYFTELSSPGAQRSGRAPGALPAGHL
Briefly: BLI (Octet); human LAG-3-Fc captured on protein G biosensors, 1:1 fit.

The target in assay [2] is T2, recombinant human PD-1 Fc chimera (human, UniProt Q15116 25-167).
T2 construct: Bought Fc chimera; also called human PD-1 (R&D systems cat no. 1086-PD); PD1 antigen
T2 sequence (Q15116 25-167 limits assumed, change not shown): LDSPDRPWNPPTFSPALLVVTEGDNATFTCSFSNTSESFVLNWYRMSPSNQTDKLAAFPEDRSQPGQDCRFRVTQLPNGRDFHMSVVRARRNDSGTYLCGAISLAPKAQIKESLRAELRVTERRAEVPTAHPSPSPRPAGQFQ
Briefly: Octet bio-layer interferometry; VH (100 nM) first bound to immobilised LAG3-Fc, then PD-1-Fc added. The protocol:
Recombinant LAGS-Fc (10 μg/ml) was immobilised by standard amine coupling to amine reactive biosensors in 10 mM sodium acetate at pH6. The binding steps were performed in 0.1% BSA 0.02% Tween20 in PBS. 100 nM of Humabody® were used in the first binding step, followed by binding of human PD1-Fc at 5 μg/ml. The contact time for association and dissociation was 200 seconds.

The target in assay [3] is T3, human LAG-3 expressed on cells (human, UniProt P18627 23-525).
T3 sequence: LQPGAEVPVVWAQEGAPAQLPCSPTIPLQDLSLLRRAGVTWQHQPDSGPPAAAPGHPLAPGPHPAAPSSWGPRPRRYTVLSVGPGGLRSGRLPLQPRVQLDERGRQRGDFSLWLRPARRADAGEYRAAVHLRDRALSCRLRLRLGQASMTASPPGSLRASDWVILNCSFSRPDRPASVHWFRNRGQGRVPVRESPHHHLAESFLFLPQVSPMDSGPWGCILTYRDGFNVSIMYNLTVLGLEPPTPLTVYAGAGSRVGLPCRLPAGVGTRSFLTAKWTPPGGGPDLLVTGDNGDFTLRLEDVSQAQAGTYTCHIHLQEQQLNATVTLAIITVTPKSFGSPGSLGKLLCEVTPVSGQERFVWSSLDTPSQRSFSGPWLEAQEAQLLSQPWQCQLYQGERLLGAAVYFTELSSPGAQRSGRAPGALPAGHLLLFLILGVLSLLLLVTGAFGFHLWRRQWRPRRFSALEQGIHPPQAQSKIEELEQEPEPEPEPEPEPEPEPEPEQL
As to the kind of experiment: cell-based or functional assay.

For assay [4], the target named is T3, human LAG-3 expressed on cells. Briefly: flow cytometry (Intellicyte) on anti-CD3/anti-CD28 stimulated human CD4+ T cells; His-tagged VH detected with anti-HIS biotin and streptavidin AlexaFluor488. Here is the method: FIG. 2. CD4+ T cells were stimulated with anti-CD3 and anti-CD28. Cells were stained with HIS tagged VH plus anti-HIS tag labelled with biotin and streptavidin AlexaFluor488. Cells were analysed using Intellicyte® cytometer.
Binding onto human activated T cells was measured by cytometry. PBMC or magnetically isolated T cells were isolated from leukocytes cones and cells were incubated in 96 well plates coated with anti-CD3 (OKT3) at 5 μg/ml. Anti-CD28 (CD28.2) was added at 1 μg/ml in RPMI media and foetal bovine serum. After 72-96 hours, cells were harvested and stained using standard flow cytometry methods. […] Fluorescently labelled anti-CD4 and anti-CD8 were included in PBMC cultures and a live/dead dye. Stained cells were analysed using the IQue cytometer (Intellicyte). EC50 were calculated from the titration curve of median fluorescence of Humabody, gating on CD4+ or CD8+ cells if using mixed cells.

Assay [5] concerns the target T1, recombinant human LAG-3-Fc. Briefly: competition ELISA; LAG-3-Fc pre-incubated with VH, binding to coated LSECtin. The text has this: The plate was blocked with 3% Marvel skimmed milk powder in PBS. […] Wash steps were done 3 times with PBS 0.05% Tween. Colour was developed using TMB and 0.5M sulphuric acid solution.
A general note: An ELISA detects its analyte on a solid surface through an enzyme-linked reagent.

Assay [6] addresses T4, Rhesus monkey LAG-3 (used as cynomolgus LAG-3) (Rhesus monkey (called cynomolgus in the …)).
T4 construct: extracellular domain
Briefly: ELISA, coated antigen, VH at 10 µg/ml, anti-HIS HRP. Here is the method: (§1) To screen specificity by ELISA, antigens were coated at 1-5 ug/ml and blocked with Marvel milk powder. VH were added at 10 μg/ml and incubated for 1 hour. After washing, HRP-conjugated anti-HIS antibody (Miltenyi cat no. 130-092-785) was added. TMB substrate and acidic solution were used to develop colorimetric signal.

Assay [7] addresses T1, recombinant human LAG-3-Fc. The assay is described as above. The protocol:
as §1

Assay [8] has as its target T5, human LAG-3 domains 1-2-Fc (human, UniProt P18627 23-261, limits assumed).
T5 construct: Domains were identified as per Huard et al 1997 PNAS 94:5744-9; also called truncated LAG-3
T5 sequence: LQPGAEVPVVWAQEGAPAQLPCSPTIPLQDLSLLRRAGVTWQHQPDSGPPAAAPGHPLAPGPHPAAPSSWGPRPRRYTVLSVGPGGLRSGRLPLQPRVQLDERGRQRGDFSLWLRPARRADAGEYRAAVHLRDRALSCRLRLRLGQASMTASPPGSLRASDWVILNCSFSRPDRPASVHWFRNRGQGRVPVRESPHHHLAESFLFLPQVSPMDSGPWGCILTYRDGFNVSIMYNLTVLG
The description is as above. Here is the method:
as §1

B1: VH1.1-6GS-VH1.1-His6 (VHH)
chain: EVQLVESGGGVVRPGGSLRLSCSASGFTFDDYGMSWVRQAPGKGLEWVSGIHWNGGNSGYADSVKGRFTISRDNAKNSLYLQMNSLRAEDTALYYCARIPREDCSSASCYTDAIDFWGPGTMVTVSSGGGGSGGGGSGGGGSGGGGSGGGGSGGGGSEVQLVESGGGVVRPGGSLRLSCSASGFTFDDYGMSWVRQAPGKGLEWVSGIHWNGGNSGYADSVKGRFTISRDNAKNSLYLQMNSLRAEDTALYYCARIPREDCSSASCYTDAIDFWGPGTMVTVSSAAAHHHHHH
notes: Tandem fusion of two VH 1.1, bivalent for LAG-3; The entry includes the C-terminal AAA-His6; also called 1.1-6GS-1.1; bivalent 1.1-6GS-1.1
In the case of B1, in assay [1], the Kd worked out at 0.417 nM, the koff came to 0.00047 s⁻¹ and the kon turned out to be 1.13e+06 M⁻¹ s⁻¹. Moreover, in assay [2], the binding result is “no binding”. In addition, the “EC50 (M), NFAT-Luciferase Reporter Gene assay (LAG-3:MHCII)” value in assay [3] is 4.1e-09 M. Also, the “EC50 (read off the curve)” value in assay [4] was ~0.1 nM. The IC50 in assay [5] worked out at 55 nM. In addition, in assay [6], the “ELISA signal over background” value was > 10 fold over background. In addition, the “ELISA signal over background” value in assay [7] is > 10 fold over background. The “ELISA signal over background” value in assay [8] is > 10 fold over background.

What is called Kd is the concentration at which binding is half-saturated. What is called koff is a measure of how fast the partners let go of each other. What is called kon is the rate constant with which the complex forms. In general, EC50 (read off the curve) refers to the concentration at which the effect is half-maximal. Broadly, the IC50 is the midpoint of a concentration-inhibition curve.

Source of the values: patent US20210015937A1 (CRESCENDO BIOLOGICS, published 2021).
